Seven molecules from article PMC6497274, “Isolation of nanobodies against Xenopus embryonic antigens using immune and non-immune phage display libraries” (PLoS ONE, 2019) can be followed below.

Where a chain is given by its changes, count along the chain named.

One assay deals with T1, BSA (Bos taurus, UniProt P02769).
T1 construct: BSA (serum albumin), negative control coating in ELISA
Description: ELISA; 96-well plate coated with 1 μg/ml Ndel1-MBP or BSA; purified nanobodies at 2 μg/ml in 2% skim milk in PBS/0.05% Tween-20, 4 h at room temperature; detected by anti-His-tag antibody. The following applies: both partners purified. (In an ELISA, binding on a coated surface is turned into a signal by an enzyme label.)

In assay [1] the target is T2, Npm2 (nucleoplasmin) (Xenopus laevis, UniProt P05221).
T2 construct: predicted molecular weight 22 kDa, found as a 170 kDa band in SDS-PAGE; it was not measured here; also called 170 kDa band; source: endogenous, Xenopus laevis embryo lysate; copies: 10
T2 sequence (P05221 whole entry): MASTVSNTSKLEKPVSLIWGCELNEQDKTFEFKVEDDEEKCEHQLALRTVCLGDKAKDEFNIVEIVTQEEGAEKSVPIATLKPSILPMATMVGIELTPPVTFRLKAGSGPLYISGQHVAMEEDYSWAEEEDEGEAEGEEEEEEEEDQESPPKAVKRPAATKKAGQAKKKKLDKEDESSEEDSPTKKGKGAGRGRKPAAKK
Description: affinity purification with mass spectrometry; purified His-tagged nanobody incubated with Xenopus embryo lysate (1% Triton X100 lysis buffer), captured on His60 Ni Superflow resin overnight at 4°C, SDS-PAGE, SimplyBlue staining, 170 kDa band cut out for LC-MS/MS. The following applies: one partner purified.

The target of assay [2] is T2, Npm2 (nucleoplasmin). Description: far-Western, overlay or dot blot; immunoblot: Xenopus embryo lysates of different stages on 10% SDS-PAGE, PVDF membrane probed overnight at 4°C with purified His-tagged nanobody (0.2-3 μg/ml), detected by anti-His6 antibody. The conditions noted are these: one partner purified. (A western blot detects proteins with antibodies after separation by electrophoresis.)

T1 sequence (P02769 25-607): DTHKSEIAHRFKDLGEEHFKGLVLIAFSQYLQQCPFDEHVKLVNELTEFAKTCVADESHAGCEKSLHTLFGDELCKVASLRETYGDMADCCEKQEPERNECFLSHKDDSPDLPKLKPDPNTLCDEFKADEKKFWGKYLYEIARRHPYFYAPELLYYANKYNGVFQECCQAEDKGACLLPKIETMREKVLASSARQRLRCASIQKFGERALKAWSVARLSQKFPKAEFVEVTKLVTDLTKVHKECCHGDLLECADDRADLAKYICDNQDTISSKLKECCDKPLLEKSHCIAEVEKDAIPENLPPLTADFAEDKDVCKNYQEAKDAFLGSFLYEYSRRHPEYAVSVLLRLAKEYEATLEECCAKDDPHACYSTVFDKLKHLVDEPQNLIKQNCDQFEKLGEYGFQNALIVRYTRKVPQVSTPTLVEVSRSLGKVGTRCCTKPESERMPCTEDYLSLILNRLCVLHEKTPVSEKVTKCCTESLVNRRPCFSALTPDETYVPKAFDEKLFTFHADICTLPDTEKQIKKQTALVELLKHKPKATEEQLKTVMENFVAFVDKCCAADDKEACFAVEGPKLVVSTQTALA

B1: NbH3 (VHH)
VHH: EVKLQESGGGLAQSGGSLRLSCAPQLGAHTIVAMGWYRQPPDSQREFVAMLFANGITRYNEAVKGRFTISRDDAKNTMYLQMNNLKPEDTAVYYCKIYDHSIMTDYWGQGTQVTVSS
notes: nanobody from the semi-synthetic non-immune llama library Nomad#1; His6-tagged alkaline phosphatase fusion from pecan16; source: E. coli BL21Star periplasm (pecan16), purified (IMAC)
For the molecule B1, in the assay with BSA, the binding result is recorded as “no binding (tested: 2 μg/ml)”.

B2: NbE2 (VHH)
VHH: QVKLQQSGGGSVQVGGSLRLSCTASGSAFIINTMSWYRRAPGKQRELVATITRRGTTNYADSVKGRFTISRDNAENTVDLHMNSLKPEDTAVYYCKGYRADWMTDYWGQGTQVTVSS
notes: as for B1
For the molecule B2, in the assay with BSA, the binding result was “no binding (tested: 2 μg/ml)”.

B3: NbG12 (VHH)
VHH: VQLQASGGGLVQAGSSRRLYCAFSGDTFNGRPMGWFRQAPGKEREFVATISASGGRTYYAGSVLGRFTISRDNTRNTVSLQMNNLTPEDTAVYYCAAKRPTALSDNYDYKTENEYNYWGQGTQVTVS
notes: nanobody from the immune llama library; Nucleus-staining nanobody; source: bacterial periplasm (pecan126 phagemid clone), purified (His60-Ni-Superflow resin)
For B3, in the assay with Npm2 (nucleoplasmin) [1], the binding result was “binds”.

B4: NbE9 (VHH)
VHH: QVKLQESGGGSVQHGGSLRLSCVASGLSFSNHWMYWVRQAQGKGLEWVSSINPSGSFTSYTDSAKGRFTISKANDGHTVYLQMNNLKPEDTGVYYCGLGSWSELEYSYSYWGRGTQVTVSS
notes: nanobody from the semi-synthetic non-immune llama library Nomad#1; His6-tagged alkaline phosphatase fusion from pecan16; also called AP-NbE9; 6His-AP-NbE9; source: E. coli BL21Star periplasm (pecan16), purified (IMAC); not shown: alkaline phosphatase, C-terminal, kept
For B4, the binding result with BSA was “no binding (tested: 2 μg/ml)”.

B5: NbE7 (VHH)
VHH: B4 VHH with Q1K, K3Q, E6A, S11L, H14P, R19Q, H32Y
notes: nanobody from the semi-synthetic non-immune llama library Nomad#1; His6-tagged alkaline phosphatase fusion from pecan16; also called AP-NbE7; source: E. coli BL21Star periplasm (pecan16), purified (IMAC); not shown: alkaline phosphatase, C-terminal, kept
For B5, the binding result in the assay with BSA is “no binding (tested: 2 μg/ml)”.

B6: NbG6 (VHH)
VHH: DVQLQASGGGLVQPGASLRLSCVSTRNTFSIDPMSWYRRAPGKGLEWVSGISNRGGSTSYADSVKGRFTISRDNIKSTLYLQMNSLKPEDTAVYYCNADASRWGSWGQGTQVTVSS
notes: as for B1
B6: in the assay with BSA, the binding result was “no binding (tested: 2 μg/ml)”.

B7: NbN39 (VHH)
VHH: VQLQASGGGLVQAGGSLRLSCTFSGGTFNGRNMGWFRQAPGKEREFAATISASGGRTYYAESVLGRFTISRDNARNTVYLQMNNLTPEDTAVYFCAAKRPTRLSENYDYKTENDYDYWGQGTQVTVS
notes: nanobody from the immune llama library; Nucleus-staining nanobody; used as negative control in the Ndel1 ELISA; source: bacterial periplasm (pecan126 phagemid clone), purified (IMAC)
For B7, the binding result in the assay with Npm2 (nucleoplasmin) [2] is listed as “binds”.
